The source of these data is US9371519B2, “Complex type sugar chain hydrolase” (National Institute of Advanced Industrial Science and …, priority 2011, dated 2016).

This data set is described as follows: Hydrolysis activity for various PA-labeled sugar chains (HPLC peak area ratio, relative to M8A). Format: biochemical. The note with it: 1 μM substrate, pH 5.3, 30° C. The method, then:
(§1) Using the Endo-Om partially purified enzyme solution of the present invention, hydrolysis activity for various PA-labeled commercially available sugar chains (TaKaRa-Bio Inc.) were measured, and the results are shown in the following (Table 1) together with the measurements in a literature on Endo-M (Non Patent Literature 6). The hydrolysis activity at that time was calculated from the peak area ratio between the PA-labeled sugar chain and its hydrolysate as substrates in HPLC, and the relative activity for the various sugar chains was calculated, with the hydrolysis activity for the sugar chain with an M8A structure set at 100%.
as §1, with “Endo-Cp” for “Endo-Om”, “2)” for “1)”
as §1, with “Endo-Pa” for “Endo-Om”, “3)” for “1)”
as §1, with “Endo-Zr” for “Endo-Om”, “4)” for “1)”
Comparison of hydrolysis activity for PA-labeled sugar chains having various structures was carried out as follows. A reaction solution containing a sodium acetate buffer at final concentration of 100 mM (pH 5.3), 0.5 M of NaCl, 1 μM of any of various PA-labeled sugar chains (TaKaRa-Bio Inc.), and an Endo-Om purified enzyme solution (total volume: 10 μl) was incubated at 30° C. for 3 to 12 hours, and heated at 95° C. for 5 minutes thereby stopping the enzyme reaction. The reaction solution was subjected to HPLC, and enzymatic activity was calculated from the peak area ratio between the PA-labeled sugar chain as the substrate and its hydrolysate. The column used herein was Cosmosil 5C18-ARII (2.0.150 mm, Nacalai Tesque, Inc.), the solvents were a 0.1 M ammonium acetate buffer (pH 4.0: solvent A), a 0.1 M ammonium acetate buffer (pH 4.0), and 0.5% 1-butanol (solvent B). Linear gradient elution was carried out using the solvent B: 5%-50% at a flow rate of 0.5 ml/min over a period of 24 minutes, and detection was carried out using a fluorescence detector (excitation wavelength 320 nm, and fluorescence wavelength 400 nm). The enzymatic activity was calculated with the activity hydrolyzing 1 μmol of the PA-labeled sugar chain in 1 minute under the above-described reaction conditions as 1 Unit, and the relative activity for various sugar chains were calculated with the hydrolysis activity for the sugar chain having an M8A structure as 100%. […]

Setting [1] is: substrate drawing 1/drawing 14/drawing 27/drawing 40 (M3B structure), M8A = 100%.
[2] abbreviates: substrate drawing 2/drawing 15/drawing 28/drawing 41 (M5A structure per text), M8A = 100%.
The mark [3] stands for this setting: substrate drawing 4/drawing 17/drawing 30/drawing 43 (high-mannose type M8A-PA sugar chain, set at 100%).
[4] abbreviates: substrate drawing 5/drawing 18/drawing 31/drawing 44 (M9A structure per text), M8A = 100%.
[5] abbreviates: substrate drawing 6/drawing 19/drawing 32/drawing 45, M8A = 100%.
[6] abbreviates: substrate drawing 7/drawing 20/drawing 33/drawing 46, M8A = 100%.
[7] abbreviates: substrate drawing 8/drawing 21/drawing 34/drawing 47, M8A = 100%.
Where [8] appears, read: substrate drawing 9/drawing 22/drawing 35/drawing 48, M8A = 100%.

B1: Endo-Pa: endo-β-N-acetylglucosaminidase from Pichia anomala ATCC36904, amino acid sequence SEQ ID NO. 9, 656 amino acids (protein, listed as Pichia anomala)
chain: MQHDHAAIKFEEDSISSQRFSSLDEVEKWYNTKNRSPLDDLRIPRESLSHYNRFRDNNDEIKVLVCHDFKGNYQEGEDENPLGYFPHSSGQHYFIQFPSLVDLFIFFSHYKIAVPPVSWINSLHRQGIPVLGTLIFEGTDVSESDKLLEKNENGDFKYLEILCELVRHYGFDGWLVNMESHFSSVAKAQDLLLFDEALRSTLHLKVPGSKLIWYDSLITQKNRVFYQNAVNEWNYDHFSTSDLFFTNYWWNEEDLKRNILNIGLQGVKQKLFVGVDIWGRGSRIGNGGFESGLAINYLKRYSTNVALFAPAWTYENFEEDQFLIKDRKFWIGDQTSDETGGSVATYVSHYTTPVYVKDQNVKFYTNFSVGEGTKYRVFAHTVFKNNWVNGNLQLPTPIIDNEKRIDIYYKESFNGGSSLKVTQRNSILNDGKSNILQLFSFKNDIHSNNLNVSVSFKYLSEIPLNSTFQLEIKFYIERRYRSVTRVRDGTFKLPLAFSNKNWKYIETSFALPRLQIREHFVLEGLQIRWVDNVDELSSSIGTSGDFTESWIIVPQNSDPNAVYELLIGDLLVEGIKTANGNIDAVTKLSRKITLDSRSILATWKDDTEVLYWIIYVNAKFLGIAHKSLWRVQRGDKLRVDVFTRSGKLVKGEDIFI
For the molecule B1, the “Relative activity (hydrolysis activity for PA-labeled sugar chain)” value (“Relative activity” below) amounted to 152% under setting [1]; 94.3% under setting [2]; 100% under setting [3]; 115% under setting [4]; 4.0% under setting [5]; 35.4% under setting [6]. Moreover, the “Relative activity” value is 36.3% under setting [7] and 40.5% under setting [8].

B2: Endo-Cp: endo-β-N-acetylglucosaminidase from Candida parapolymorpha DL-1 ATCC26012, amino acid sequence SEQ ID NO. 5, 745 amino acids (protein, listed as Candida parapolymorpha)
chain: MPRNTAKHSSLPQTNLPLSSLESSFFDSLDELANWERRIHEKSFELDELNKPTEKLAHYTRARQQSTSEDVKLLVCHDLKGGYQVNEDEDPLGYFPHPDGQHYFLQYPQLVDKFVYFSHHRVSIPPVSWINVCHRNAIKCLGTVIFEGNTYRDFEEADKLLTKQDGEYVFVRCLVALVEYFQFDGYLFNIETRFSNTRIASLLEPFLEQLRAELHVRNPSTELIWYDSYIYPENRVLYKNGVTEANYNFFSCCDSFFTNYWWNVKHLQDNIKNVGVLGSRLKVYAGYDVWGRGTMIGKGGYDSALACQMIKKYRSNVALFAPAWTYEYLARKDFTQNDTRFWIGLFDGESSMATTFKPYSSPLYKINDSNFVFYTNFGSGEGCAFYECGEKVYRDNWVNGSLQMEIPYAIHTRNKNGIQWTLSKEDSFHGGSCVEIKYNEVVDDKGYQVFNNQTINSFSLFSFVQDCSFPTVNVKLTYKLNHKTKSFFKLKIGYYIERRYRTVQKVRSGCLVVPLLSTNDQWFTIEEPFHVSLQNSHEFIVLDSATIFYEETEDPFMRAHVVEDQSTSSVIDNEEYEKLMNSEIYFDDEDEDWILVPSDISMESTDNGGRENHTWKVISNQIRKKHPKSHPSTSPVLKLGELAIINANDYPSDSFFKLMPVNSIDVRRWEGKILLIWKTNQDSVLYHLIFVDDVFQGISLVSKFVFEDQAVDEKSFKTKSGGSTKVRIDTVNRLGILVKGTDM
In the case of B2, the “Relative activity” value runs as follows: under setting [1], 37.3%; under setting [2], 15.1%; under setting [3], 100%; under setting [4], 21.6%; under setting [5], 0.4%; under setting [6], 4.7%. Also, the “Relative activity” value is, setting by setting: under setting [7], 1.1%; under setting [8], 3.1%.
